In US20230002480A1:

Legend:
Experiment in all cases: cell-based or functional assay
[1] = biological target: HIV-1 Env of pseudovirus 1006_11_C3_1601 (HIV-1)
[2] = biological target: HIV-1 Env of pseudovirus 1394C9G1(Rev-) (HIV-1)
[3] = biological target: HIV-1 Env of pseudovirus 263-8 (HIV-1)
[4] = biological target: HIV-1 Env of pseudovirus 6244_13_B5_4576 (HIV-1)
[5] = biological target: HIV-1 Env of pseudovirus 6540.v4.c1 (HIV-1)
[6] = biological target: HIV-1 Env of pseudovirus 6545.v4.c1 (HIV-1)
[7] = biological target: HIV-1 Env of pseudovirus 6811.v7.c18 (HIV-1)
[8] = biological target: HIV-1 Env of pseudovirus 89-F1_2_25 (HIV-1)
[9] = biological target: HIV-1 Env of pseudovirus 9004SS_A3_4 (HIV-1)
[10] = biological target: HIV-1 Env of pseudovirus 928-28 (HIV-1)
[11] = biological target: HIV-1 Env of pseudovirus A07412M1.vrc12 (HIV-1)
[12] = biological target: HIV-1 Env of pseudovirus BF1266.431a (HIV-1)
[13] = biological target: HIV-1 Env of pseudovirus BJOX010000.06.2 (HIV-1)
[14] = biological target: HIV-1 Env of pseudovirus BJOX015000.11.5 (HIV-1)
[15] = biological target: HIV-1 Env of pseudovirus C4118.c09 (HIV-1)
[16] = biological target: HIV-1 Env of pseudovirus CNE20 (HIV-1)
[17] = biological target: HIV-1 Env of pseudovirus CNE30 (HIV-1)
[18] = biological target: HIV-1 Env of pseudovirus CNE5 (HIV-1)
[19] = biological target: HIV-1 Env of pseudovirus Ce2060_G9 (HIV-1)
[20] = biological target: HIV-1 Env of pseudovirus Du422.1 (HIV-1)
[21] = biological target: HIV-1 Env of pseudovirus MS208.A1 (HIV-1)
[22] = biological target: HIV-1 Env of pseudovirus P0402_c2_11 (HIV-1)
[23] = biological target: HIV-1 Env of pseudovirus PVO.4 (HIV-1)
[24] = biological target: HIV-1 Env of pseudovirus Q769.d22 (HIV-1)
[25] = biological target: HIV-1 Env of pseudovirus QH0692.42 (HIV-1)
[26] = biological target: HIV-1 Env of pseudovirus R1166.c01 (HIV-1)
[27] = biological target: HIV-1 Env of pseudovirus SC05_8C11_2344 (HIV-1)
[28] = biological target: HIV-1 Env of pseudovirus T257-31 (HIV-1)
[29] = biological target: HIV-1 Env of pseudovirus T278-50 (HIV-1)
[30] = biological target: HIV-1 Env of pseudovirus TRJO4551.58 (HIV-1)
[31] = biological target: HIV-1 Env of pseudovirus WITO4160.33 (HIV-1)
[32] = biological target: HIV-1 Env of pseudovirus X1632_S2_B10 (HIV-1)
[33] = biological target: HIV-1 Env of pseudovirus X2131_C1_B5 (HIV-1)
[34] = biological target: HIV-1 Env of pseudovirus ZM135M.PL10a (HIV-1)
[35] = biological target: HIV-1 Env of pseudovirus ZM197M.PB7 (HIV-1)
[36] = biological target: HIV-1 Env of pseudovirus ZM214M.PL15 (HIV-1)
[37] = biological target: HIV-1 Env of pseudovirus ZM249M.PL1 (HIV-1)

NIH 45-46 (antibody) showed a neutralization IC50 [1] of 0.05 µg/mL, a neutralization IC80 [1] of 0.31 µg/mL and a neutralization IC50 [2] of 0.09 µg/mL. The neutralization IC80 [2] was 0.38 µg/mL, the neutralization IC50 [3] was 0.05 µg/mL and the neutralization IC80 [3] was 0.1 µg/mL. The neutralization IC50 [4] was 0.07 µg/mL, the neutralization IC80 [4] was 0.26 µg/mL and the IC50, titer in TZM.bl cells [5] was > 50 µg/mL. The IC80, titer in TZM.bl cells [5] was > 50 µg/mL, the IC50, titer in TZM.bl cells [6] was > 50 µg/mL and the IC80, titer in TZM.bl cells [6] was > 50 µg/mL. The IC50, titer in TZM.bl cells [7] was 0.03 µg/mL, the IC80, titer in TZM.bl cells [7] was 0.13 µg/mL and the IC50, titer in TZM.bl cells [8] was > 50 µg/mL. For the same substance, the IC80, titer in TZM.bl cells [8] was > 50 µg/mL, the neutralization IC50 [9] was 0.18 µg/mL and the neutralization IC80 [9] was 0.65 µg/mL. For the same substance, the neutralization IC50 [10] was 0.1 µg/mL, the neutralization IC80 [10] was 0.39 µg/mL and the IC50, titer in TZM.bl cells [11] was 0.03 µg/mL. The IC80, titer in TZM.bl cells [11] was 0.13 µg/mL, the neutralization IC50 [12] was 0.01 µg/mL and the neutralization IC80 [12] was 0.03 µg/mL. For the same substance, the IC50, titer in TZM.bl cells [13] was 0.87 µg/mL, the IC80, titer in TZM.bl cells [13] was 6.37 µg/mL and the IC50, titer in TZM.bl cells [14] was 0.06 µg/mL. The IC80, titer in TZM.bl cells [14] was 0.38 µg/mL, the IC50, titer in TZM.bl cells [15] was 0.14 µg/mL and the IC80, titer in TZM.bl cells [15] was 0.91 µg/mL. For the same substance, the neutralization IC50 [16] was 8.71 µg/mL, the neutralization IC80 [16] was 47 µg/mL and the neutralization IC50 [17] was 0.34 µg/mL. For the same substance, the neutralization IC80 [17] was 1.48 µg/mL, the IC50, titer in TZM.bl cells [18] was 0.09 µg/mL and the IC80, titer in TZM.bl cells [18] was 0.41 µg/mL. The neutralization IC50 [19] was 0.14 µg/mL, the neutralization IC80 [19] was 0.48 µg/mL and the neutralization IC50 [20] was > 50 µg/mL. For the same substance, the neutralization IC80 [20] was > 50 µg/mL, the neutralization IC50 [21] was 0.09 µg/mL and the neutralization IC80 [21] was 0.6 µg/mL. It also gave an IC50, titer in TZM.bl cells [22] of 0.06 µg/mL, an IC80, titer in TZM.bl cells [22] of 0.26 µg/mL and a neutralization IC50 [23] of 0.17 µg/mL. For the same substance, the neutralization IC80 [23] was 0.47 µg/mL, the neutralization IC50 [24] was 0.01 µg/mL and the neutralization IC80 [24] was 0.04 µg/mL. For the same substance, the neutralization IC50 [25] was 0.55 µg/mL, the neutralization IC80 [25] was 1.56 µg/mL and the IC50, titer in TZM.bl cells [26] was 1.68 µg/mL. The IC80, titer in TZM.bl cells [26] was 1.68 µg/mL, the neutralization IC50 [27] was 0.14 µg/mL and the neutralization IC80 [27] was 0.38 µg/mL. For the same substance, the neutralization IC50 [28] was 0.23 µg/mL, the neutralization IC80 [28] was 1.11 µg/mL and the IC50, titer in TZM.bl cells [29] was > 30 µg/mL. For the same substance, the IC80, titer in TZM.bl cells [29] was > 30 µg/mL, the neutralization IC50 [30] was 0.01 µg/mL and the neutralization IC80 [30] was 0.05 µg/mL. For the same substance, the neutralization IC50 [31] was 0.01 µg/mL, the neutralization IC80 [31] was 0.08 µg/mL and the IC50, titer in TZM.bl cells [32] was 0.07 µg/mL. For the same substance, the IC80, titer in TZM.bl cells [32] was > 50 µg/mL, the IC50, titer in TZM.bl cells [33] was 0.2 µg/mL and the IC80, titer in TZM.bl cells [33] was 0.9 µg/mL. The neutralization IC50 [34] was 0.36 µg/mL, the neutralization IC80 [34] was 3.11 µg/mL and the neutralization IC50 [35] was 0.14 µg/mL. For the same substance, the neutralization IC80 [35] was 0.64 µg/mL, the neutralization IC50 [36] was 0.05 µg/mL and the neutralization IC80 [36] was 0.39 µg/mL. The neutralization IC50 [37] was 0.02 µg/mL and the neutralization IC80 [37] was 0.06 µg/mL.

With PGT128 (antibody) the IC50 [1] was 0.011 µg/mL, the IC80 [1] was 0.04 µg/mL and the IC50 [2] was 0.011 µg/mL. It also gave an IC80 [2] of 0.034 µg/mL, an IC50 [3] of 0.342 µg/mL and an IC80 [3] of 3.3 µg/mL. It also gave an IC50 [4] of 0.02 µg/mL, an IC80 [4] of 0.076 µg/mL and an IC50, titer in TZM.bl cells [5] of 11.8 µg/mL. The IC80, titer in TZM.bl cells [5] was > 50 µg/mL, the IC50, titer in TZM.bl cells [6] was > 50 µg/mL and the IC80, titer in TZM.bl cells [6] was > 50 µg/mL. For the same substance, the IC50, titer in TZM.bl cells [7] was 0.003 µg/mL, the IC80, titer in TZM.bl cells [7] was 0.05 µg/mL and the IC50, titer in TZM.bl cells [8] was > 50 µg/mL. For the same substance, the IC80, titer in TZM.bl cells [8] was > 50 µg/mL, the IC50 [9] was 0.002 µg/mL and the IC80 [9] was 0.01 µg/mL. For the same substance, the IC50 [10] was > 50 µg/mL, the IC80 [10] was > 50 µg/mL and the IC50, titer in TZM.bl cells [11] was > 50 µg/mL. For the same substance, the IC80, titer in TZM.bl cells [11] was > 50 µg/mL, the IC50 [12] was > 50 µg/mL and the IC80 [12] was > 50 µg/mL. For the same substance, the IC50, titer in TZM.bl cells [13] was 4.82 µg/mL, the IC80, titer in TZM.bl cells [13] was > 50 µg/mL and the IC50, titer in TZM.bl cells [14] was 0.001 µg/mL. For the same substance, the IC80, titer in TZM.bl cells [14] was 0.011 µg/mL, the IC50, titer in TZM.bl cells [15] was > 50 µg/mL and the IC80, titer in TZM.bl cells [15] was > 50 µg/mL. For the same substance, the IC50 [16] was 0.001 µg/mL, the IC80 [16] was 0.004 µg/mL and the IC50 [17] was 2.06 µg/mL. It also gave an IC80 [17] of 12.6 µg/mL, an IC50, titer in TZM.bl cells [18] of 0.018 µg/mL and an IC80, titer in TZM.bl cells [18] of 0.253 µg/mL. For the same substance, the IC50 [19] was > 50 µg/mL, the IC80 [19] was > 50 µg/mL and the IC50 [20] was 0.039 µg/mL. For the same substance, the IC80 [20] was 0.113 µg/mL, the IC50 [21] was > 50 µg/mL and the IC80 [21] was > 50 µg/mL. The IC50, titer in TZM.bl cells [22] was 0.007 µg/mL, the IC80, titer in TZM.bl cells [22] was 0.02 µg/mL and the IC50 [23] was 0.011 µg/mL. The IC80 [23] was 0.028 µg/mL, the IC50 [24] was > 50 µg/mL and the IC80 [24] was > 50 µg/mL. The IC50 [25] was 0.029 µg/mL, the IC80 [25] was 0.081 µg/mL and the IC50, titer in TZM.bl cells [26] was > 50 µg/mL. The IC80, titer in TZM.bl cells [26] was > 50 µg/mL, the IC50 [27] was 0.017 µg/mL and the IC80 [27] was 0.041 µg/mL. For the same substance, the IC50 [28] was > 50 µg/mL, the IC80 [28] was > 50 µg/mL and the IC50, titer in TZM.bl cells [29] was 0.031 µg/mL. For the same substance, the IC80, titer in TZM.bl cells [29] was 0.089 µg/mL, the IC50 [30] was 0.018 µg/mL and the IC80 [30] was 0.041 µg/mL. For the same substance, the IC50 [31] was > 50 µg/mL, the IC80 [31] was > 50 µg/mL and the IC50, titer in TZM.bl cells [32] was > 50 µg/mL. The IC80, titer in TZM.bl cells [32] was > 50 µg/mL, the IC50, titer in TZM.bl cells [33] was > 50 µg/mL and the IC80, titer in TZM.bl cells [33] was > 50 µg/mL. The IC50 [34] was > 50 µg/mL, the IC80 [34] was > 50 µg/mL and the IC50 [35] was > 50 µg/mL. The IC80 [35] was > 50 µg/mL, the IC50 [36] was 1.5 µg/mL and the IC80 [36] was 29.4 µg/mL. For the same substance, the IC50 [37] was 39.7 µg/mL and the IC80 [37] was > 50 µg/mL.
